Data from patent US20140120095A1 (Boehringer Ingelheim, published 2014).
Numbering of substitutions follows the chain as printed. Blank lines part the entries; values can stand above or below the binder they belong to.

How the values were obtained:
[1] = target: T1, human DLL4, full length, overexpressed on cells (human, UniProt Q9NR61 27-685); experiment: cell-based or functional assay
[2] = target: T1, human DLL4, full length, overexpressed …; experiment: FMAT, hNotch1-Fc on CHO-hDLL4, -HSA
[3] = target: T2, mouse DLL4, full length, overexpressed on CHO cells (mouse, UniProt Q9JI71 27-686); experiment: FMAT, hNotch1-Fc on CHO-mDLL4, -HSA
T2 construct: whole, on cells; also called mDLL4; CHO-mDLL4
Target sequence in this assay (Q9JI71 27-686): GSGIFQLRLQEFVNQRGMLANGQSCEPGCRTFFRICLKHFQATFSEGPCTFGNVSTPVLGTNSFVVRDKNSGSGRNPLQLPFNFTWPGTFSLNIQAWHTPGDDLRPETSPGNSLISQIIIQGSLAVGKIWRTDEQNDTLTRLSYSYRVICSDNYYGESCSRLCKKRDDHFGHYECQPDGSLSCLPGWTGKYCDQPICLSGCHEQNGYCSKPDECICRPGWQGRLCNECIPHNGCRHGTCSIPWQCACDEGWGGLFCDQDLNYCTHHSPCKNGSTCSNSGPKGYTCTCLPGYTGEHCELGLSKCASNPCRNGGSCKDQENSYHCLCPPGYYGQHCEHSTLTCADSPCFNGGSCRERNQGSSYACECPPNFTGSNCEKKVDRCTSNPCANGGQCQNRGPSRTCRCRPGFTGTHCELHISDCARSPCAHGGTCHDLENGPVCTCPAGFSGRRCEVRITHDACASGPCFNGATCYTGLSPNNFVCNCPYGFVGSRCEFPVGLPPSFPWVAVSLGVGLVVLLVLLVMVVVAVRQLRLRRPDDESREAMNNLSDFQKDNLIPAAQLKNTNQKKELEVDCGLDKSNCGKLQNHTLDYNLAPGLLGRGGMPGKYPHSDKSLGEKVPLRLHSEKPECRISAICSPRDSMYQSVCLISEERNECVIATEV

[4] = target: T1, human DLL4, full length, overexpressed …; experiment: FMAT, hNotch1-Fc on CHO-hDLL4, +25 uM HSA
[5] = target: T2, mouse DLL4, full length, overexpressed …; experiment: FMAT, hNotch1-Fc on CHO-mDLL4, +25 uM HSA
Target sequence in this assay (Q9JI71 27-686): as above

[6] = target: T3, recombinant human DLL4 (human, UniProt Q9NR61 25-522); experiment: binding ELISA, coated rhDLL4
T3 construct: also called rhDLL4; hDLL4
Procedure: (§1) In order to determine cross-reactivity to mouse DII4 a binding ELISA is performed. […] Wells are blocked with a casein solution (1% in PBS). VHHs are applied as dilution series and binding is detected using a mouse anti-myc (Roche) and an anti-mouse-AP conjugate (Sigma, St Louis, Mo., USA) (FIG. 7 A-H). As reference, binding to human DII4 is measured.

[7] = target: T3, recombinant human DLL4; experiment: hDLL4 ELISA screen, periplasmic extract
[8] = target: T4, human DLL4 overexpressed on cells (human, UniProt Q9NR61 27-685); experiment: competitive FMAT, hNotch1-Fc on CHO-hDLL4
T4 construct: full length human DLL4 on CHO or HEK293 cells; also called CHO-hDLL4; CHO-hDII4

[9] = target: T3, recombinant human DLL4; experiment: competition AlphaScreen, biot-hDLL4/hNotch1-Fc
Procedure: In brief, 1 nM biotinylated human DII4 is captured on streptavidin-coated donor beads (20 μg/mL), while 0.4 nM of the receptor human Notch1 (as a Fc fusion protein) is captured on anti-human Fc VHH-coated acceptor beads (20 μg/mL). Both loaded beads are incubated together with a dilution range of the competing VHH (FIG. 4 A-E).

[10] = target: T5, recombinant mouse DLL4 (mouse, UniProt Q9JI71 27-532); experiment: binding ELISA on coated recombinant mouse DLL4, OD 405 nm
T5 construct: extracellular domain; also called rmDLL4; mDLL4
Procedure: as §1

[11] = target: T6, human DLL1 (human, UniProt O00548 18-545, limits assumed); experiment: binding ELISA on coated recombinant human DLL1, OD 405 nm
T6 construct: also called hDLL1
T6 sequence (looked up): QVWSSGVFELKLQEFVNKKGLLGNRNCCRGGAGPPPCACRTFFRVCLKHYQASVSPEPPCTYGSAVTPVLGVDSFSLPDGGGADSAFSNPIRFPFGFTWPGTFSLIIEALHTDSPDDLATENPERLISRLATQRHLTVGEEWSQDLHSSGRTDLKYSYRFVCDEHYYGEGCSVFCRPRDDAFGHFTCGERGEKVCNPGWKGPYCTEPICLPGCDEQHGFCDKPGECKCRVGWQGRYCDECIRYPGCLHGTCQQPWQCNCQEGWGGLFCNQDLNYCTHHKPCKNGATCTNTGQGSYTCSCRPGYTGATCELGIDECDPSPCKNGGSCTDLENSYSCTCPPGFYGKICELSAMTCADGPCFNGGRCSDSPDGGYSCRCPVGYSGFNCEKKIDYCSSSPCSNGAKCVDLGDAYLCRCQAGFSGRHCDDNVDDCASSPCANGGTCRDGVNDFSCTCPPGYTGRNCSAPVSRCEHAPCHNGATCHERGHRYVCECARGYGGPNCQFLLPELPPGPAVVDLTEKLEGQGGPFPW
Procedure: (§2) Absence of binding to homologous ligands human DLL1 and human Jagged-1 is assessed via solid phase binding assay (ELISA). In brief, human DLL1 (Alexis, San Diego, Calif., USA) and human Jagged-1 (Alexis, San Diego, Calif., USA) are coated overnight at 4° C. at 1 μg/mL in a 96-well MaxiSorp plate (Nunc, Wiesbaden, Germany). Wells are blocked with a casein solution (1% in PBS). VHHs are applied as dilution series and binding is detected using a mouse anti-myc (Roche) and an anti-mouse-AP conjugate (Sigma, St. Louis, Mo., USA).

[12] = target: T7, human Jagged-1 (human, UniProt P78504 34-1067, limits assumed); experiment: binding ELISA on coated recombinant human Jagged-1, OD 405 nm
T7 construct: also called hJagged-1; hJAG1
Procedure: as §2

[13] = target: T3, recombinant human DLL4; experiment: competition ELISA, biot-hDLL4 to coated hNotch1-Fc
Source text: Residual binding of biotinylated human DII4 is detected using horseradish peroxidase (HRP) conjugated extravidin (Sigma, St. Louis, Mo., USA) (FIG. 3 A-C). Human DII4 is biotinylated as described above.

[14] = target: T1, human DLL4, full length, overexpressed …; experiment: FMAT, hNotch1-Fc on CHO-hDLL4, -HSA; remark: listed apart in the source
[15] = target: T2, mouse DLL4, full length, overexpressed …; experiment: FMAT, hNotch1-Fc on CHO-mDLL4, -HSA; remark: listed apart in the source
[16] = target: T8, recombinant human VEGF165 (human, UniProt P15692-4 27-191, biotinylated in the competition assays); experiment: AlphaScreen, hVEGF165/hVEGFR1-Fc competition, -HSA
T8 construct: Bought protein; also called hVEGF165; rhVEGF165

[17] = target: T8, recombinant human VEGF165; experiment: AlphaScreen, hVEGF165/hVEGFR2-Fc competition, -HSA

T5 sequence (Q9JI71 27-532): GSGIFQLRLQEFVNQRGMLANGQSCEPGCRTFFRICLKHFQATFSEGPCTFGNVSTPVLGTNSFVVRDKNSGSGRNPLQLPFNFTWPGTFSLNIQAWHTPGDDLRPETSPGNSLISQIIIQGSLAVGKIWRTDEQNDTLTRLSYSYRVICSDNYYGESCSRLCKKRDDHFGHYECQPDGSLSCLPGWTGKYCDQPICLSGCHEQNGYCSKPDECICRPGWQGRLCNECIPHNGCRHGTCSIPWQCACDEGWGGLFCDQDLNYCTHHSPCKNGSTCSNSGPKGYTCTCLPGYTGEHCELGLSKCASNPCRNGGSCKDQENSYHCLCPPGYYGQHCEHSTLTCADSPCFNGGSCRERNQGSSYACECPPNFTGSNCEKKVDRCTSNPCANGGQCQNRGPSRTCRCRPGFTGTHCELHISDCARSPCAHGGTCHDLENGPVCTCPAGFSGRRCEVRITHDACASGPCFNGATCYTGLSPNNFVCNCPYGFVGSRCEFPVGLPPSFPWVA
T8 sequence (P15692 other isoform, or with tags, fused parts or gaps): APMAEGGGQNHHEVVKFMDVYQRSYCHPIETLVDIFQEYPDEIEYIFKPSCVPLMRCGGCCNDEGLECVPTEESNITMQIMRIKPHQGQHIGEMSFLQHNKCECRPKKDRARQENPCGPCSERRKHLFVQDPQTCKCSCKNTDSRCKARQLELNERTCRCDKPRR

B3: DLLBII6B11 (VHH)
VHH: EVQLVESEGGLVQAGGSLRLSCAASGSTFSSYAMGWYRQAPGKQRELVAVISNGGITNYPNSVKGRFTISRDNAKNTVYLQMNSLKPEDTAVYYCFYSGSYYYPTDVHEYDYWGQGTQVTVSS
notes: also called DLLBII06B1
EC50 [6]: 1.4 nM
% inh [7]: 98%
IC50 [8]: 8.9 nM
IC50 [9]: 0.3 nM
IC50 [13]: 1.5 nM
binding result [10]: no binding (tested: 2.5e-7 M)
binding result [11]: no binding (tested: 2.5e-7 M)
binding result [12]: no binding (tested: 2.5e-7 M)

B4: DLLBII07A02 (VHH)
VHH: B3 VHH with E8G, S30N, L47W, V50A, I51F, N53T, I56S, P60A, N61D, H108F
EC50 [6]: 1.4 nM
IC50 [9]: 0.4 nM
binding result [10]: no binding (tested: 2.5e-7 M)
binding result [11]: no binding (tested: 2.5e-7 M)
binding result [12]: no binding (tested: 2.5e-7 M)

B7: A3 (bispecific antibody)
chain: VQLVESGGGLVQPGGSLRLSCAASGRTFSSYSMGWFRQAPGKEREFVVAISKGGYKYDAVSLEGRFTISRDNAKNTVYLQINSLRPEDTAVYYCASSRAYGSSRLRLADTYEYWGQGTLVTVSSGGGGSGGGGSGGGGCGGGGSGGGGSGGGGSGGGGSEVQLVESGGGLVQPGGSLRLSCAASGIRFISMAWYRQAPGKQRELVARISSGGTTAYADSVKGRFTISRDNSKNTVYLQMNSLRAEDTAVYYCNTFSSRPNPWGQGTLVTVSSGGGGSGGGGSGGGGSGGGGSGGGGSGGGGSGGGGSEVQLVESGGGLVQPGGSLRLSCAASGRTFSSYAMAWYRQAPGKEREYVAAIRWSGGTAYYADSVKGRFTISRDNAKNTVYLQMNSLRPEDTAVYYCANRAPDTRLAPYEYDHWGQGTLVTVSS
modifications: PEGylated at the Cys at position 15 of the 35 Gly-Ser linker
notes: VEGFBII038 - 35GS(Cys15) - VEGFBII032 - 35GS - DLLBII018
% inh [14]: 97%
IC50 [14]: 16.1 nM
% inh [15]: 95%
IC50 [15]: 7.9 nM
% inh [16]: 97%
IC50 [16]: 0.02 nM
% inh [17]: 100%
IC50 [17]: 0.01 nM

B8: DLLBII05B11 (VHH)
VHH: EVQLVESGGGLVQPGGSLRLSCAISGFTLDLHVIGWLRQAPGKEREWVSCISSSDGSTYYADSVKGRFTISRDNAKNTVYLQMNSLKPEDTAVYYCAAPWDSWYCGIGNDYDYWGQGTQVTVSS
notes: also called DLLBII5B11
EC50 [6]: 1.8 nM
% inh [7]: 98%
IC50 [9]: 0.7 nM
binding result [10]: no binding (tested: 2.5e-7 M)
binding result [11]: no binding (tested: 2.5e-7 M)
binding result [12]: no binding (tested: 2.5e-7 M)

The next lines start with the values.

IC50, DLL4 mediated reporter assay, +HSA [1]: 88 nM
% inh [2]: 90%
IC50 [2]: 3.2 nM
% inh [3]: 100%
IC50 [3]: 3 nM
% inh [4]: 90%
IC50 [4]: 4.3 nM
% inh [5]: 100%
IC50 [5]: 3.7 nM
B1: DLLBII129B05 (VHH, not shown: small tags and cut ends)
VHH: EVQLVESGGGLVQAGGSLRLSCAASGRTFSSYAMAWYRQAPGKEREYVAAIRWSGGTAYYADSVQGRFTISRDNAKNTVYLQMNSLKPEDTAVYYCANRAPDTRLAPYEYDHWGQGTQVTVSS

EC50 [6]: 0.9 nM
% inh [7]: 96%
IC50 [8]: 5.5 nM
IC50 [9]: 0.4 nM
binding result [10]: no binding (tested: 2.5e-7 M)
binding result [11]: no binding (tested: 2.5e-7 M)
binding result [12]: no binding (tested: 2.5e-7 M)
B2: DLLBII08A09 (VHH)
VHH: EVQLVESGGGLVQPGGSLRLSCAASGFTLDYYNIGWFRQAPGKEREWVSCINSSDGSTYYADSVKGRFTISRDNAKNTVYLQMNSLKPEDTAVYYCAAPFAYYSNLCGVNGYDYWGQGTQVTVSS
notes: also called DLLBII8A09

IC50, DLL4 mediated reporter assay, +HSA [1]: 103 nM
% inh [2]: 94%
IC50 [2]: 6.8 nM
% inh [3]: 100%
IC50 [3]: 16.4 nM
% inh [4]: 94%
IC50 [4]: 7.1 nM
% inh [5]: 100%
IC50 [5]: 17.6 nM
B5: DLLBII136C07 (VHH, not shown: small tags and cut ends)
VHH: EVQLVESGGGLVQPGGSLRLSCAASGFTFGSYDMSWVRRSPGKGPEWVSSINSGGGSTYYADYVKGRFTISRDNAKNTLYLQMNSLKPEDTAVYYCAADRYIWARQGEYWGAYEYDYWGQGTQVTVSS

EC50 [6]: 7.2 nM
% inh [7]: 84%
IC50 [9]: 1.1 nM
binding result [10]: no binding (tested: 2.5e-7 M)
binding result [11]: no binding (tested: 2.5e-7 M)
binding result [12]: no binding (tested: 2.5e-7 M)
B6: DLLBII07B05 (VHH)
VHH: EVQLVESGGGLVQAGGSLRLSCAASGFALDYYAVGWFRQAPGKEREGVSCISSRGGSTFYADSVKGRFTTSRNNAKNTVYLQMNSLKPEDTAVYYCAAHPLQNCCGGSAYASPEAVYEYWGQGTQVTVSS
notes: also called DLLBII7B05
